According to patent EP4803537A1 (PHRONTLINE BIOPHARMA (SUZHOU) CO., LTD, dated 2026):
Residue numbers refer to the chain shown, from its start.

B1: Fab-Fc/Fab-Fc bispecific antibody (zalutumumab Fab x pertuzumab Fab), KIH combination (K0/H0) (bispecific antibody, human IgG1, kappa)
heavy 1: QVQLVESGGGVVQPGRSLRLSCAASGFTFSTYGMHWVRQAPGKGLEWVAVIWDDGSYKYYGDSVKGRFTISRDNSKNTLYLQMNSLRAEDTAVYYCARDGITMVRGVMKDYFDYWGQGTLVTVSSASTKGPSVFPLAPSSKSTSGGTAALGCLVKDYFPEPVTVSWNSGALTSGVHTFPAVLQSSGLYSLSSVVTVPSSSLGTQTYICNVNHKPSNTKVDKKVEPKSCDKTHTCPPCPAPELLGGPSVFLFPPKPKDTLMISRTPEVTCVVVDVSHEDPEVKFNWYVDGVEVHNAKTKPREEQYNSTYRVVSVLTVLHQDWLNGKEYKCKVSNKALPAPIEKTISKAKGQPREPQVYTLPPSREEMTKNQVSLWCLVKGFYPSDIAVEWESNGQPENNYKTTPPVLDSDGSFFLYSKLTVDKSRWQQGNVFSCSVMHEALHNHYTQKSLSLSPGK
light 1: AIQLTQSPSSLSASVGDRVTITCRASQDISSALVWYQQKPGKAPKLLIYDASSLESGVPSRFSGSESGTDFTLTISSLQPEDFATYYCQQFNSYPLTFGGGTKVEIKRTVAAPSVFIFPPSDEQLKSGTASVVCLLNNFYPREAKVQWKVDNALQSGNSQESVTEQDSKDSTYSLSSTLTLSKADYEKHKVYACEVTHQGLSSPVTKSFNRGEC
heavy 2: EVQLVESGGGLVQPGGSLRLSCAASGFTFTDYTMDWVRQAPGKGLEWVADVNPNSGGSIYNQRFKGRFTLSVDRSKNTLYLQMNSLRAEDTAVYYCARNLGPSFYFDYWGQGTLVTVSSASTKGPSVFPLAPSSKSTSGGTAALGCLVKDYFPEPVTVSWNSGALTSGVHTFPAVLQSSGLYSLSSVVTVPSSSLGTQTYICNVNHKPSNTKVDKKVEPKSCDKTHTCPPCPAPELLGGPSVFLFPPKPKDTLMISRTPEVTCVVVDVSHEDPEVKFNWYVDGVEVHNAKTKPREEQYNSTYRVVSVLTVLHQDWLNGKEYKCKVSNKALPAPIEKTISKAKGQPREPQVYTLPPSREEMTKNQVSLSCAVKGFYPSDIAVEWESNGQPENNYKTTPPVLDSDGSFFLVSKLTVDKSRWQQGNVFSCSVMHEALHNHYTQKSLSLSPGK
light 2: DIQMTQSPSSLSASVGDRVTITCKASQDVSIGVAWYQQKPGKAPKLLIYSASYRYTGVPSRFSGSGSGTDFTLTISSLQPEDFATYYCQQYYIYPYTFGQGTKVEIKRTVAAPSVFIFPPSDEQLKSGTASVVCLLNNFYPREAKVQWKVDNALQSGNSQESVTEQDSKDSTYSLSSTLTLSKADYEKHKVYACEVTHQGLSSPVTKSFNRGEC
notes: Human IgG1 Fc (hinge, CH2, CH3); the exact junction between VH-CH1 and Fc (EU 221-447) is not spelled out; also called KIH control
B2: Fab-Fc/Fab-Fc bispecific antibody (zalutumumab Fab x pertuzumab Fab), M1 mutant combination (K2/H2) (bispecific antibody, human IgG1, kappa)
heavy 1: not shown
light 1: not shown
heavy 2: EVQLVESGGGLVQPGGSLRLSCAASGFTFTDYTMDWVRQAPGKGLEWVADVNPNSGGSIYNQRFKGRFTLSVDRSKNTLYLQMNSLRAEDTAVYYCARNLGPSFYFDYWGQGTLVTVSSASTKGPSVFPLAPSSKSTSGGTAALGCLVKDYFPEPVTVSWNSGALTSGVHTFPAVLQSSGLYSLSSVVTVPSSSLGTQTYICNVNHKPSNTKVDKKVEPKSCDKTHTCPPCPAPELLGGPSVFLFPPKPKDTLMISRTPEVTCVVVDVSHEDPEVKFNWYVDGVEVHNAKTKPREEQYNSTYRVVSVLTVLHQDWLNGKEYKCKVSNKALPAPIEKTISKAKGQPREPQVYTLPPSREEMTKNQVSLSCAVKGFYPSDIAVEWESNGQPENNYKTTPPVLRSDGSFFLVSKLTVDKSRWQQGNVFSCSVMHEALHNHYTQKSLSLSPGK
light 2: not shown
notes: Human IgG1 Fc; Junction between VH-CH1 and Fc not spelled out; no linker named for this format
B3: Fab-Fc/Fab-Fc bispecific antibody (zalutumumab Fab x pertuzumab Fab), M3 mutant combination (K2/H7) (bispecific antibody, human IgG1, kappa)
heavy 1: not shown
light 1: not shown
heavy 2: B2 heavy 2 with L353Y
light 2: not shown
notes: as for B2
B4: Fab-Fc/Fab-Fc bispecific antibody (zalutumumab Fab x pertuzumab Fab), M2 mutant combination (K0/H8) (bispecific antibody, human IgG1, kappa)
heavy 1: not shown
light 1: not shown
heavy 2: B2 heavy 2 with L353Y, R401D
light 2: not shown
notes: as for B2

molecular target: T1, Recombinant human EGFR protein (ACRO Biosystems, EGR-H5222) (human, UniProt P00533 25-645); assay: ELISA, EGFR coated on the plate
T1 construct: Bought protein

binding result | Binder
binds | B1
binds | B2
binds | B3
binds | B4

molecular target: T2, recombinant human FcγRI protein (ACRO Biosystems, Cat. FCA-H52H1) (human, UniProt P12314 16-288, limits assumed); assay: BLI (Octet Red 96), FcγRI on HIS1K sensors
T2 construct: Captured on anti-His (HIS1K) biosensors, so it carries a His tag; also called FcγRI receptor
T2 sequence (P12314 16-288 limits assumed): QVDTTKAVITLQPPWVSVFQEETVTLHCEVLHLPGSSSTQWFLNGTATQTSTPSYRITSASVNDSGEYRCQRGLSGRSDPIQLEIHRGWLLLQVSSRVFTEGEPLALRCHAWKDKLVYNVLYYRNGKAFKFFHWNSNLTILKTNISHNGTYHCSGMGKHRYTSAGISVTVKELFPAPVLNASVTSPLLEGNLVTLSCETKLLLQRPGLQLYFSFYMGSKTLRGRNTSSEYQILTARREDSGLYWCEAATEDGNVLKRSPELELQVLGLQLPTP

binding result | Binder
binds | B1
binds | B2
binds | B3
binds | B4
